Molecular target: amyloid-b1-42 peptide (UniProt P05067)
Assay: cell-based or functional assay

Sequence of amyloid-b1-42 peptide (P05067 672-713 limits assumed): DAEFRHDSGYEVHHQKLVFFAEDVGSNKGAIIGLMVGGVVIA
Sequence of T7-RRR-CsgB133-142-PPP (P19727 1-348, tags or fused parts left off): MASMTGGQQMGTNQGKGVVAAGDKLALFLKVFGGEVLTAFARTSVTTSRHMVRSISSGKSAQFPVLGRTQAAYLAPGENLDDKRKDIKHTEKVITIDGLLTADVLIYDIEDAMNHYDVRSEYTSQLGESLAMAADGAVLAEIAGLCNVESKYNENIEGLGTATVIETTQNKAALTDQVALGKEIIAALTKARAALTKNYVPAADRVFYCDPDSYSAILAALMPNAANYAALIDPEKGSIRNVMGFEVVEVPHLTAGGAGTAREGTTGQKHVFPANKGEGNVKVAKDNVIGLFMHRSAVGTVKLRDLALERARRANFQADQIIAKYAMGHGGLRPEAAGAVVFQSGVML

T7-RRR-CsgB133-142-PPP (from UniProt P19727 1-348)
Aβ:peptide molar ratio at the doubling of the lag time: 70000 | phage concentration that doubles the lag time of Aβ fiber formation: 5e+07 PFU/mL
